Experimental data reported in paper PMC9629515.
Like-named read-outs stand apart in the source and are kept apart here.

What was measured:
[1] = molecular target: cytosolic domain of Aeromonas hydrophila AscV (AscVC; residues 375–721) (Aeromonas hydrophila AH3)
[2] = molecular target: cytosolic domain of Photorhabdus luminescens LscV (LscVC; residues 357–705) (Photorhabdus luminescens (Table 1: Photorhabdus laumondii TT01)); assay: crystal structure
[3] = molecular target: cytosolic domain of Photorhabdus luminescens LscV (LscVC; residues 357–705) (Photorhabdus luminescens (Table 1: Photorhabdus laumondii TT01)); assay: crystal structure; remark: listed apart in the source

Row | Substance | stoichiometry N [1] | stoichiometry N [2] | stoichiometry N [3]
1 | cytosolic domain of Aeromonas hydrophila AscV (AscVC; residues 375–721) (domain or fragment) | 10 | – | –
2 | cytosolic domain of Photorhabdus luminescens LscV (LscVC; residues 357–705) (domain or fragment) | – | 8 | 9
